Assays:
[1] = biological target: Mycobacterium smegmatis Dps2 (MsDps2), wild type (Mycobacterium smegmatis); test: SEC
[2] = biological target: ΔN15MsDps2 (MsDps2 with the first 15 N-terminal amino acids deleted) (Mycobacterium smegmatis); test: negative-stain electron microscopy

“Mycobacterium smegmatis Dps2 (MsDps2), wild type (natural protein)” was tested, and the stoichiometry N [1] was 12.

In the case of “ΔN15MsDps2 (MsDps2 with the first 15 N-terminal amino acids deleted) (domain or fragment)”, the stoichiometry N [2] was 12.

From publication doi:10.1101/2023.01.16.523357
